T1: 9°N-7 YAV C223S exo- 71 deletion (C-terminus 704) (Thermococcus sp. 9°N-7) (UniProt Q56366)
T1 sequence: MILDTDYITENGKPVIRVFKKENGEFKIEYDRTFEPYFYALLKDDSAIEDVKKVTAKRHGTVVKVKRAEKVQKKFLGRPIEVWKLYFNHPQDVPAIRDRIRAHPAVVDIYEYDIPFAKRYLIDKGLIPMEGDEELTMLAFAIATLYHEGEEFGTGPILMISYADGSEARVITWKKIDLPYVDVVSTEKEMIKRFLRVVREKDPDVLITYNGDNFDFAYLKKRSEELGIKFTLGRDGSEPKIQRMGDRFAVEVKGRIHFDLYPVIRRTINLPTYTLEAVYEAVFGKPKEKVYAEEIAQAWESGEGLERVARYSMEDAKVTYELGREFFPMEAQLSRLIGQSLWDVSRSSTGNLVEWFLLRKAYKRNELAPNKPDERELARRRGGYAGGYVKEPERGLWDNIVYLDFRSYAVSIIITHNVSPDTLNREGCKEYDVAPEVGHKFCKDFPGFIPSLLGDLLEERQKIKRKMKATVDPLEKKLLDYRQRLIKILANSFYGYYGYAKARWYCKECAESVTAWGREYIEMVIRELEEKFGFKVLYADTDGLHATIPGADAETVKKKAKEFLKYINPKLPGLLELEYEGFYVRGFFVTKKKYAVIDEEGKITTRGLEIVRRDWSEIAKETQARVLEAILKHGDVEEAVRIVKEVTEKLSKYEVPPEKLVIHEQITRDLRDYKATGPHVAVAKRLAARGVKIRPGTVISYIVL

T2: 9°N-7 YAV C223S exo- K705A (Thermococcus sp. 9°N-7, UniProt Q56366 SEQ:1-775)
T2 chain: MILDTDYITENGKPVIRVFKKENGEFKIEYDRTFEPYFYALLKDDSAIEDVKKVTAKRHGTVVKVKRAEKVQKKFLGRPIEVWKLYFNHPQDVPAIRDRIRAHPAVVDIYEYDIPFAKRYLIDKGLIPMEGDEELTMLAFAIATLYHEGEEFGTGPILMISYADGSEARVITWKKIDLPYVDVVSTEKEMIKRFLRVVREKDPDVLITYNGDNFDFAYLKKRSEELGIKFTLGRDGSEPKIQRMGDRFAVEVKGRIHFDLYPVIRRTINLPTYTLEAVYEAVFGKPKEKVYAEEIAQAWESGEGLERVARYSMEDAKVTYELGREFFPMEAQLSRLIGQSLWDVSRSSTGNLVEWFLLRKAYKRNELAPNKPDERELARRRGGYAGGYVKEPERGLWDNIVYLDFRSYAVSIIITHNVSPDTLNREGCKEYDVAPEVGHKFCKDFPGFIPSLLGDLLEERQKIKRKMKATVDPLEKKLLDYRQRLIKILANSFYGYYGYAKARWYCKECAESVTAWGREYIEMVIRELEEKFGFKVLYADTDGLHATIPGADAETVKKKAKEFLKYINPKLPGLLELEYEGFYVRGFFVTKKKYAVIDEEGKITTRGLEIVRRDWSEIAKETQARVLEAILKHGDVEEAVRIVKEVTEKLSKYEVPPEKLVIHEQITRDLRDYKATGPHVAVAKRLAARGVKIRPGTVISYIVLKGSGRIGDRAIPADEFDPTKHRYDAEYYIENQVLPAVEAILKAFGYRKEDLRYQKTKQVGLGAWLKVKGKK

T3: 9°N-7 DNA polymerase YAV C223S exo- (clone 9) C223S,L408Y,Y409A,P410V (Thermococcus sp. 9°N-7) (UniProt Q56366)
T3 sequence: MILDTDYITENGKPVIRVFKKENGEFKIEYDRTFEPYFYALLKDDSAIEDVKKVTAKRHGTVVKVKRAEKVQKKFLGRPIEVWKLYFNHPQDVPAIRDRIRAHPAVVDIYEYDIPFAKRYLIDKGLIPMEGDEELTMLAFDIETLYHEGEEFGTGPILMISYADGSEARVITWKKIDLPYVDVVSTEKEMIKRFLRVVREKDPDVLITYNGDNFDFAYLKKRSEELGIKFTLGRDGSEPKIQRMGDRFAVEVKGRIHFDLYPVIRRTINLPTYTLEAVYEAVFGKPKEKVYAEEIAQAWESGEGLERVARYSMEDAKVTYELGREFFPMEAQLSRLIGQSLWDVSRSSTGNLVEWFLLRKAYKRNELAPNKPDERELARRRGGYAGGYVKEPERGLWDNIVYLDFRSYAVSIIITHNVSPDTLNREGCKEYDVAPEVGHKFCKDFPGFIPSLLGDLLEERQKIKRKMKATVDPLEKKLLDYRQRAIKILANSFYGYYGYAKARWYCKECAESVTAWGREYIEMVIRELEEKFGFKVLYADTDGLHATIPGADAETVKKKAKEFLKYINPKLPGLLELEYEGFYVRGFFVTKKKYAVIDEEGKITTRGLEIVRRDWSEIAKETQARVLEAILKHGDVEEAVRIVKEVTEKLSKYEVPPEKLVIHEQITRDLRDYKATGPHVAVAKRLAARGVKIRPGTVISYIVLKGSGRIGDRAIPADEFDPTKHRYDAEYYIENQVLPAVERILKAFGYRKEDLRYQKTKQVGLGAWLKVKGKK

T4: 9°N-7 YAV C223S exo- R713A (Thermococcus sp. 9°N-7) (UniProt Q56366)
T4 sequence: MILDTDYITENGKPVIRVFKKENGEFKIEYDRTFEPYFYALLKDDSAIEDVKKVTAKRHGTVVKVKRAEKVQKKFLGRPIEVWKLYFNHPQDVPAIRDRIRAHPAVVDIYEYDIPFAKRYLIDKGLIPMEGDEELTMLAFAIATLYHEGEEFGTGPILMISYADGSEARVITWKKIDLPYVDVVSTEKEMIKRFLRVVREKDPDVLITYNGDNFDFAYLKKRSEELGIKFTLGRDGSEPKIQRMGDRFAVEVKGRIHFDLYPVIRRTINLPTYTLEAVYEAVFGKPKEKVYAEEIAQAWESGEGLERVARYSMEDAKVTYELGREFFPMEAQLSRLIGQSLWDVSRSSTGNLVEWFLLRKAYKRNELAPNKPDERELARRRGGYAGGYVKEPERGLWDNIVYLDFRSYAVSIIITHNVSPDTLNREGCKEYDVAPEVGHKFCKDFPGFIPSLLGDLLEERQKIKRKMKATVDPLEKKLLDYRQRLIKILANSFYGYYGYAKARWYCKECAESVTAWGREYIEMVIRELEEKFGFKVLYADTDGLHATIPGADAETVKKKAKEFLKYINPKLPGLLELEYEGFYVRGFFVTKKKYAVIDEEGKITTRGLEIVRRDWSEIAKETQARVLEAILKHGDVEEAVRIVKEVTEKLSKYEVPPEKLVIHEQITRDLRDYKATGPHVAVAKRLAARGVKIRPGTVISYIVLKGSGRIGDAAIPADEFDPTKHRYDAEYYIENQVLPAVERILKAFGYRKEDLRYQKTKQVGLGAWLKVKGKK

T5: 9°N-7 YAV C223S exo- R743A (Thermococcus sp. 9°N-7) (UniProt Q56366)
T5 sequence: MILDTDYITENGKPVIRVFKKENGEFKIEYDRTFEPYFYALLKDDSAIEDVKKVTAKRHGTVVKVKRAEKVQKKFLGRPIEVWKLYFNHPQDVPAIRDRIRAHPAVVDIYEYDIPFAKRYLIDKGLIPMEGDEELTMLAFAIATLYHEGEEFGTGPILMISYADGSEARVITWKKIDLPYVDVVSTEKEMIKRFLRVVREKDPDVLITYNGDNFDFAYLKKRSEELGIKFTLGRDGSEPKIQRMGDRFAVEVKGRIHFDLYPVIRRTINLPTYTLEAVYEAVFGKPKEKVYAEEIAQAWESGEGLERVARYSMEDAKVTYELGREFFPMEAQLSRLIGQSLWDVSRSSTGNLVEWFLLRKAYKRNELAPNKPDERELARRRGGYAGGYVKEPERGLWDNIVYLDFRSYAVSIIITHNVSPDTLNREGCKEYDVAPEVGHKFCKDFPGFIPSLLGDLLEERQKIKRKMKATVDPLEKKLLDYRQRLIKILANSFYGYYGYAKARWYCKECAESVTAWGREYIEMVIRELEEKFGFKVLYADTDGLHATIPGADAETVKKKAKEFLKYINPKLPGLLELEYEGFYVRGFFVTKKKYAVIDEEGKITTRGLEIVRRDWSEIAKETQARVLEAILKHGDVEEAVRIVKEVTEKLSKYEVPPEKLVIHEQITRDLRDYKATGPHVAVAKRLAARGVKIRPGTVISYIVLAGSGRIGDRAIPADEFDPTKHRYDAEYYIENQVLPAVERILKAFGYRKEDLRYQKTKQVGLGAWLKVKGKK


Tests used:
[1] = molecular target: T1, 9°N-7 YAV C223S exo- 71 deletion (C-terminus 704) (Thermococcus sp. 9°N-7); details: crude enzyme; kobs relative to YAV, essentially inactive
[2] = molecular target: T2, 9°N-7 YAV C223S exo- K705A; details: burst kobs, DNA:pol 5:1; biphasic, burst amplitude ~28%
[3] = molecular target: T3, 9°N-7 DNA polymerase YAV C223S exo- (clone 9) C223S,L408Y,Y409A,P410V (Thermococcus sp. 9°N-7); details: burst kobs, DNA:pol 5:1; biphasic, burst amplitude 19%
[4] = molecular target: T4, 9°N-7 YAV C223S exo- R713A (Thermococcus sp. 9°N-7); details: kobs, DNA:pol 5:1; single exponential, amplitude ~90%
[5] = molecular target: T5, 9°N-7 YAV C223S exo- R743A (Thermococcus sp. 9°N-7); details: kobs, DNA:pol 5:1; single exponential, amplitude ~90%
[6] = molecular target: T2, 9°N-7 YAV C223S exo- K705A; test: washing assay; similar response to clone 9; details: hairpin with 5' overhang
Procedure: Once washed, each well was incubated with a 20 μl aliquot of 500 nM enzyme (clone 9, K705A, R713A or R743A mutants) at 45° C. for 30 minutes. Post incubation, each well was washed with […] 10 mM Tris pH 8.0, 10 mM EDTA including varying concentrations of NaCl (0, 0.05, 0.1, 0.3, 0.4, 0.75, 1.0, 2.0 M) and then […] MilliQ water. Wells were subsequently pre-equilibrated with enzymology buffer prior to a further incubation of 20 μl of 2 μM ffT-N3-647 at 45° C. for 30 minutes. Wells were washed with 3×100 ml high salt wash buffer (10 mM Tris pH 8.0, 1M NaCl, 10 mM EDTA) and then 3×100 ml MilliQ water. Strips scanned on Typhoon fluorescence imager (y5 filter, PMT=500 V).

Molecule	relative kobs (% of YAV) [1] [%]	activity [2] [s⁻¹]	activity [3] [s⁻¹]	activity [4] [s⁻¹]	activity [5] [s⁻¹]	binding result [6]
10 A hairpin DNA	21	0.06	0.06	0.01	0.004	
A-template hairpin oligo 815 (structured_DNA, 5'-amino, surface coupled) DNA: CGATCACGATCACGATCACGATCACGATCACGATCACGCTGATGTGCATGCTGTTGTTTTTTTACAACAGCATGCACATCAGCG						binds
